Values of other authors in patent US20030103959A1, “Methods of providing neuroprotection and/or neurorestoration via the neural activin type IIB receptor” (priority 2001, published 2003).

System: quinolinic acid (QA) rat lesion model of Huntington's Disease
Settings: Hughes et al. 1999

B1: recombinant human (rh) activin-A: member of the TGF-β superfamily; 28 kDa disulphide-linked homodimer of two βA subunits (protein, UniProt P08476 311-426, looked up)
Inhibin beta A chain: GLECDGKVNICCKKQFFVSFKDIGWNDWIIAPSGYHANYCEGECPSHIAGTSGSSLSFHSTVINHYRMRGHSPFANLKSCCVPTKLRPMSMLYYDDGQNIIKKDIQNMIVEECGCS
- neurotrophic effects after administration: potent neurotrophic effects
